According to patent US20230143604A1, “QW DOSING OF GIP RECEPTOR AGONIST PEPTIDE COMPOUNDS AND USES THEREOF” (TAKEDA PHARMACEUTICAL COMPANY LIMITED, priority 2020, published 2023):
Starred links: 1 amine or outer side, 2 acyl side, 3 side chain; linkers in the order of their positions; H or OH if unused. Non-standard residues stand in square brackets, D forms with d. Groups on a side chain read outwards from the residue. No end group written: not given here. *: point of attachment. C18 diacid = O=C(O)CCCCCCCCCCCCCCCCC(=O)*; C17 diacid = O=C(O)CCCCCCCCCCCCCCCC(=O)*; γGlu = O=C(O)[C@H](CCC(=O)[*:2])N[*:1]; NMeY = CN[C@@H](Cc1ccc(O)cc1)C(=O)O; AEEA = NCCOCCOCC(=O)O; Aib = CC(C)(N)C(=O)O

T1: full-length human GIPR with an N-terminal FLAG tag (human, UniProt P48546 22-466)
T1 sequence (looked up): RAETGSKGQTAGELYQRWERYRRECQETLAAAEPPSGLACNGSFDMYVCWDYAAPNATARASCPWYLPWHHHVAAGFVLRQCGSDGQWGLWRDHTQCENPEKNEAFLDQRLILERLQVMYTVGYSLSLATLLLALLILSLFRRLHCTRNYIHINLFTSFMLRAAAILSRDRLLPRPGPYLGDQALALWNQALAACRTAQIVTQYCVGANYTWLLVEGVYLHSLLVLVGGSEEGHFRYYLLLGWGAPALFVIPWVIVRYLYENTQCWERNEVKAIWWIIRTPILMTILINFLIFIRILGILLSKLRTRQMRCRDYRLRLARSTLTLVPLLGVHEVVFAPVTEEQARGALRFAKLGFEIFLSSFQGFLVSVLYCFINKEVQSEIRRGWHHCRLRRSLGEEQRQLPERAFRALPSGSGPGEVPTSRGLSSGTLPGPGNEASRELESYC


Legend:
[1] = biological target: T1, full-length human GIPR with an …; experiment: cell-based or functional assay
[2] = biological target: full-length human GLP-1R with an N-terminal FLAG tag (human, UniProt P43220 24-463); experiment: cell-based or functional assay

Binder	Human GIPR cAMP EC50, HEK293T [1] [nM]	Human GLP1R cAMP EC50, HEK293T [2] [nM]
H-Y[Aib]EGTFISDYSIALDKIAQQK([AEEA-AEEA-γGlu-γGlu-C17 diacid])FVEWLLAQRPSSGAPPPS-OH [Compound No. 134]	0.0006	170
YXEGTFISDYSIAXDRXAQXNFVNWLLAQSPSSGAPPPS (N-terminus H; Aib at 2,17,20; Lys(G5-C18 diacid) at 14; C-terminal OH) [Compound No. 138]	0.0008	2.04
Y[Aib]EGTFISDYSIALDKIAQQK([AEEA-AEEA-γGlu-γGlu-C17 diacid])FVEWLLAQRG-OH [Compound No. 142]	0.0004	158
H-Y[Aib]EGTFISDYSIALDKAAQ[Aib]K([AEEA-AEEA-γGlu-γGlu-C17 diacid])FVEWLLAQRG-OH [Compound No. 133]	0.0012	58.9
Y[Aib]EGTFISDYSIALDKAAQ[Aib]K([AEEA-AEEA-γGlu-γGlu-C18 diacid])FVEWLLAQRG-OH [Compound No. 154]	0.0003	8.91
[NMeY][Aib]EGTFISDYSI[Aib]K([AEEA-AEEA-γGlu-γGlu-C17 diacid])DR[Aib]AQ[Aib]NFVNWLLAQRPSSGAPPPS-NH2 [Compound No. 14]	0.0003	172
Y[Aib]EGTFISDYSIALDKIAQ[Aib]K([AEEA-AEEA-γGlu-γGlu-C18 diacid])FVEWLLAQRG-OH [Compound No. 153]	0.0003	6.76
[NMeY][Aib]EGTFISDYSIALDR[Aib]K([Gly-Gly-Pro-Ala-Pro-Ala-Pro-γGlu-C18 diacid])Q[Aib]DFVNWLLAQSPG-OH (N-terminus assumed; SMILES CC[C@H](C)[C@H](NC(=O)[C@H](CO)NC(=O)[C@H](Cc1ccc(O)cc1)NC(=O)[C@H](CC(=O)O)NC(=O)[C@H](CO)NC(=O)[C@@H](NC(=O)[C@H](Cc1ccccc1)NC(=O)[C@@H](NC(=O)CNC(=O)[C@H](CCC(=O)O)NC(=O)C(C)(C)NC(=O)[C@H](Cc1ccc(O)cc1)NC)[C@@H](C)O)[C@@H](C)CC)C(=O)N[C@@H](C)C(=O)N[C@@H](CC(C)C)C(=O)N[C@@H](CC(=O)O)C(=O)N[C@@H](CCCNC(=N)N)C(=O)NC(C)(C)C(=O)N[C@@H](CCCCNC(=O)CNC(=O)CNC(=O)[C@@H]1CCCN1C(=O)[C@H](C)NC(=O)[C@@H]1CCCN1C(=O)[C@H](C)NC(=O)[C@@H]1CCCN1C(=O)CC[C@H](NC(=O)CCCCCCCCCCCCCCCCC(=O)O)C(=O)O)C(=O)N[C@@H](CCC(N)=O)C(=O)NC(C)(C)C(=O)N[C@@H](CC(=O)O)C(=O)N[C@@H](Cc1ccccc1)C(=O)N[C@H](C(=O)N[C@@H](CC(N)=O)C(=O)N[C@@H](Cc1c[nH]c2ccccc12)C(=O)N[C@@H](CC(C)C)C(=O)N[C@@H](CC(C)C)C(=O)N[C@@H](C)C(=O)N[C@@H](CCC(N)=O)C(=O)N[C@@H](CO)C(=O)N1CCC[C@H]1C(=O)NCC(=O)O)C(C)C) [Compound No. 136]	0.0007	63.1
YXEGTFISDYSIXXDRXAQXDFVEWLLAQRG (N-terminus H; Aib at 2,13,17,20; Lys(G5-C18 diacid) at 14; C-terminal OH) [Compound No. 139]	0.0015	8.91
YXEGTFISDYSIXXDRXAQADFVEWLLAQRG (N-terminus H; Aib at 2,13,17; Lys(G5-C18 diacid) at 14; C-terminal OH) [Compound No. 146]	0.0008	7.08
YXEGTFISDYSIXXDSXAQXDFVNWLLAQRG (N-terminus H; Aib at 2,13,17,20; Lys(G5-C18 diacid) at 14; C-terminal OH) [Compound No. 150]	0.0004	13.5
YXEGTFISDYSIAXDRXAQADFVEWLLAQRG (N-terminus H; Aib at 2,17; Lys(G5-C18 diacid) at 14; C-terminal OH) [Compound No. 149]	0.0007	15.8
YXEGTFISDYSIXXDRXAQRDFVEWLLAQRG (N-terminus H; Aib at 2,13,17; Lys(G5-C18 diacid) at 14; C-terminal OH) [Compound No. 147]	0.0008	1.66
YXEGTFISDYSIAXDRXAQXDFVEWLLAQRG (N-terminus H; Aib at 2,17,20; Lys(G5-C18 diacid) at 14; C-terminal OH) [Compound No. 144]	0.0009	15.1
YXEGTFISDYSIXXDSXAQADFVNWLLAQRG (N-terminus H; Aib at 2,13,17; Lys(G5-C18 diacid) at 14; C-terminal OH) [Compound No. 152]	0.0006	33.1
YXEGTFISDYSIXXDRAAQXDFVEWLLAQRG (N-terminus H; Aib at 2,13,20; Lys(G5-C18 diacid) at 14; C-terminal OH) [Compound No. 145]	0.0018	9.33
YXEGTFISDYSIXXDRAAQADFVEWLLAQRG (N-terminus H; Aib at 2,13; Lys(G5-C18 diacid) at 14; C-terminal OH) [Compound No. 148]	0.0004	8.71
YXEGTFISDYSIXXDSAAQXDFVNWLLAQRG (N-terminus H; Aib at 2,13,20; Lys(G5-C18 diacid) at 14; C-terminal OH) [Compound No. 151]	0.0003	5.01
H-Y[Aib]EGTFISDYSIALDKIAQRK([AEEA-AEEA-γGlu-γGlu-C17 diacid])FVEWLLAQRPSSGAPPPS-OH [Compound No. 135]	0.0007	8.32
[NMeY][Aib]EGTFISDYSIALDR[Aib]HQ[Aib]NFVNWLLAQK([AEEA-AEEA-γGlu-C18 diacid])PSSGAPPPS-NH2 [Compound No. 1]	0.0004	10.5
Y[Aib]EGTFISDYSI[Aib]LDR[Aib]AQ[Aib]K([AEEA-AEEA-γGlu-γGlu-C18 diacid])FVNWLLAQRG-OH (not fully specified (N-terminus)) [Compound No. 141]	0.0005	5.25
Y[Aib]EGTFISDYSIALDKIAQRK([AEEA-AEEA-γGlu-γGlu-C17 diacid])FVEWLLAQRG-OH [Compound No. 143]	0.0004	4.9
H-Y[Aib]EGTFISDYSIALDKIAQ[Aib]K([AEEA-AEEA-γGlu-γGlu-C17 diacid])FVEWLLAQRG-OH [Compound No. 132]	0.0009	66.1
H-Y[Aib]EGTFISDYSIALDR[Aib]AQ[Aib]K([AEEA-AEEA-γGlu-γGlu-C17 diacid])FVNWLLAQRG-OH (SMILES CC[C@H](C)[C@H](NC(=O)[C@H](CO)NC(=O)[C@H](Cc1ccc(O)cc1)NC(=O)[C@H](CC(=O)O)NC(=O)[C@H](CO)NC(=O)[C@@H](NC(=O)[C@H](Cc1ccccc1)NC(=O)[C@@H](NC(=O)CNC(=O)[C@H](CCC(=O)O)NC(=O)C(C)(C)NC(=O)[C@@H](N)Cc1ccc(O)cc1)[C@@H](C)O)[C@@H](C)CC)C(=O)N[C@@H](C)C(=O)N[C@@H](CC(C)C)C(=O)N[C@@H](CC(=O)O)C(=O)N[C@@H](CCCNC(=N)N)C(=O)NC(C)(C)C(=O)N[C@@H](C)C(=O)N[C@@H](CCC(N)=O)C(=O)NC(C)(C)C(=O)N[C@@H](CCCCNC(=O)COCCOCCNC(=O)COCCOCCNC(=O)CC[C@H](NC(=O)CC[C@H](NC(=O)CCCCCCCCCCCCCCCC(=O)O)C(=O)O)C(=O)O)C(=O)N[C@@H](Cc1ccccc1)C(=O)N[C@H](C(=O)N[C@@H](CC(N)=O)C(=O)N[C@@H](Cc1c[nH]c2ccccc12)C(=O)N[C@@H](CC(C)C)C(=O)N[C@@H](CC(C)C)C(=O)N[C@@H](C)C(=O)N[C@@H](CCC(N)=O)C(=O)N[C@@H](CCCNC(=N)N)C(=O)NCC(=O)O)C(C)C) [Compound No. 140]	0.0007	3.98
